The nature of series [1]: Km and kcat of HCPB mutants with Hipp-Glu (Example 7). Format: biochemical. To be noted: Hipp-Glu 0.25-8.0 mM; pH 7.5; 5 h at 37° C. The method in brief: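 Hipp-Glu (0.25-8.0 mM) or Hipp-Asp (0.25-5.0 mM) in 0.025 M Tris-HCl, pH 7.5, was incubated with the mutant enzymes for 5 h at 37° C. Reactions were quenched with methanol/water containing 0.2% TFA, and hippuric acid was quantified by HPLC. Km and Vmax were obtained by curve fitting.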

Series [2] in a line: Conversion of Hipp-Arg to hippuric acid by mutant and native human CPB, HPLC assay (Example 6). The following applies: 5 hr at 37° C.; 4 μg enzyme. Format: biochemical. As for the experimental part: (§1) Purified mutants of human CPB (D253K and D253R; Examples 1-3) and native human CPB, produced as described in Reference Example 12, were assayed for their ability to convert either hippuryl-L-aspartic acid (Hipp-Asp—Reference Example 2), hippuryl-L-glutamic acid (Hipp-Glu—Reference Example 1) or hippuryl-L-arginine (Sigma Chemical Company—cat no. H6625) to hippuric acid using a HPLC based assay.
(§2) The reaction mixture (250 μl) contained 4 μg human CPB (native or mutant) and 0.5 mM Hipp-Asp or Hipp-Glu in 0.025 M Tris-HCL, pH 7.5. Samples were incubated for 5 hr at 37° C. The reactions were terminated by the addition of 250 μl of 80% methanol, 20% distilled water, 0.2% trifluoro acetic acid and the amount of hippuric acid generated was quantified by HPLC.
(§3) HPLC analysis was carried out using a Hewlett Packard 1090 Series 11 (with diode array) HPLC system. Samples (50 μl) were injected onto a Hichrom Hi-RPB column (25 cm) and separated using a mobile phase of 40% methanol, 60% distilled water, 0.1% trifluoro acetic acid at a flow rate of 1 ml/min. The amount of product (hippuric acid) produced was determined from calibration curves generated with known amounts of hippuric acid (Sigma-H6375). The results are shown in Table 1 and are expressed as the percentage conversion of substrate into product in 5 hr at 37° C. with 4 μg enzyme.

A short description of series [3]: Conversion of glutamic acid prodrug to intermediate by mutant and native HCPB, HPLC assay (Example 8). Format: biochemical. To be noted: prodrug 0.25-5.0 mM.
Series [4] in a line: Conversion of Hipp-Arg by purified HCPB mutants, 30 minutes, HPLC (Example 17). The class given is biochemical. The following applies: 0.5 mM substrate, 30 minutes at 37° C. The method in brief:
(§4)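 Purified human CPB mutants were incubated with hippuryl-L-Arg, -Glu or -Asp for 30 min at 37 °C, then stopped with acidic aqueous methanol. Hippuric acid was quantified by HPLC (20% methanol/50 mM phosphate pH 6.5, 230 nm). Values are % substrate converted to hippuric acid in 30 min.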

A short description of series [5]: Conversion of Hipp-Asp to hippuric acid by mutant and native human CPB, HPLC assay (Example 6). The class given is biochemical. To be noted: 5 hr at 37° C.; 4 μg enzyme; 0.5 mM substrate. The method, then:
as §1, §2, §3

A short description of series [6]: Conversion of prodrug of Example 24 to drug of Example 25 by HCPB mutants, HPLC (Example 20). Format: biochemical. To be noted: enzyme 15 μg/ml; 0.5 mM prodrug of Example 24; 5 minutes at 37° C. The method in brief:
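Reactions stopped with MeCN plus 0.2% TFA, with [Q54R,D145A,D253K] and [G251T,D253K]HCPB mutants used at 0.75 μg per reaction. Drug formed from prodrug quantified by HPLC (70% MeCN, 30% water, 0.1% TFA; detection 260 nm) against drug calibration curves.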

A short description of series [7]: Conversion of Hipp-Arg by periplasmic shockate of HCPB mutants, 24 h (Example 18). The class given is biochemical. To be noted: shockate concentration in reaction mixture 50 %; 24 h at 37° C. As for the experimental part:
The activity of [G251T,D253K]HCPB was measured using the assay conditions described in Example 17 but using either 50 μl of a neat or 1 in 10 or 1 in 100 dilution of [G251T,D253K]HCPB crude E.coli periplasmic shockate (shockate) sample in place of purified enzyme. Samples were incubated for 24 h at 37° C. […] For other HCPB mutants, the reaction volume was 250 μl and contained 125 μl of neat shockate or 1 in 50 dilution of shockate. The shockate samples were prepared as described in Example 16. The amount of Hippuric acid produced in 24 h was quantified by HPLC as described in Example 17 and the results are shown in Table 6 and are expressed as the percentage conversion of substrate into product in 24 h at 37° C.

A short description of series [8]: Conversion of Hipp-Glu by periplasmic shockate of HCPB mutants, 24 h (Example 18). Format: biochemical. The following applies: shockate concentration in reaction mixture 50 %; 24 h at 37° C.
The nature of series [9]: Conversion of Hipp-Asp by periplasmic shockate of HCPB mutants, 24 h (Example 18). Format: biochemical. To be noted: shockate concentration in reaction mixture 50 %; 24 h at 37° C. The gist of the method:
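Crude E. coli periplasmic shockate of each HCPB mutant was incubated with substrate for 24 h at 37° C, as neat or diluted shockate (1 in 10 or 1 in 100 for [G251T,D253K]HCPB; 1 in 50 for other mutants). Hippuric acid formed was quantified by HPLC. Values are percent conversion of substrate to product in 24 h.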

Series [10] in a line: Km and kcat of HCPB mutants with Hipp-Asp (Example 7). The following applies: Hipp-Asp 0.25-5.0 mM; pH 7.5; 5 h at 37° C. Format: biochemical. As for the experimental part: Hipp-Glu and Hipp-Asp were diluted in range 0.25-8.0 mM and 0.25-5.0 mM respectively in 0.025 M Tris-HCL buffer, pH 7.5. Where necessary substrate samples were adjusted to pH 7.5 with 1M NaOH.
Samples were incubated for 5 h at 37° C. Reactions were terminated by the addition of 500 μl methanol/distilled water (80/20) containing 0.2% TFA. The amount of hippuric acid produced was quantified by HPLC as described in Example 6.
Km and Vmax values were calculated using the ENZFITTER software programme (Biosoft, Perkin Elmer).

Series [11] is described as follows: Conversion of Hipp-Glu by purified HCPB mutants, 30 minutes, HPLC (Example 17). The class given is biochemical. The following applies: 0.5 mM substrate, 30 minutes at 37° C. The gist of the method:
as §4

Series [12] concerns LoVo colorectal tumour cells.
The nature of series [13]: Conversion of Hipp-Asp by purified HCPB mutants, 30 minutes, HPLC (Example 17). The following applies: 0.5 mM substrate, 30 minutes at 37° C. The class given is biochemical. The gist of the method:
as §4

Series [14] can be described thus: Conversion of Hipp-Glu to hippuric acid by mutant and native human CPB, HPLC assay (Example 6). The following applies: 5 hr at 37° C.; 4 μg enzyme; 0.5 mM substrate. The class given is biochemical. As for the experimental part: as §1, §2, §3
Series [15] in a line: HCPB activity of COS-7 cell supernatants against Hipp-Arg (5 h assay). Format: biochemical. To be noted: COS-7 cell supernatant 250 μl, after activation with trypsin 700 μg/ml. As for the experimental part:
Measurements were carried out at 37° C. in 0.25 mM Tris HCl buffer, pH 7.5 using 1 cm path length cuvettes in a total volume of 1.0 ml using a Perkin Elmer Lambda 2 spectrophotometer. Km and Vmax values were calculated using the ENZFITTER software programme (Biosoft, Perkin Elmer). Kcat was calculated from Vmax by dividing by the enzyme concentration in the reaction mixture.
For expression in eukaryotic cells, vectors containing genes capable of expressing preHCPB and the prepro sequence were cotransfected into COS-7 cells. COS cells are an African green monkey kidney cell line, CV-1, transformed with an origin-defective SV40 virus and have been widely used for short-term transient expression of a variety of proteins because of their capacity to replicate circular plasmids containing an SV40 origin of replication to very high copy number. There are two widely available COS cell clones, COS-1 and COS-7. The basic methodology for transfection of COS cells is described by Bebbington in Methods: A Companion to Methods in Enzymology (1991) 2, p. 141. […] Cell supernatants (250 μl) were analysed for HCPB activity against Hipp-Arg (5 h assay) as described in Reference Example 3. […]

B1: D253K HCPB: mature HCPB with aspartate 253 changed to lysine, C-terminal (His)6-c-myc tag (protein, UniProt P15086 111-417, looked up, variant D253K)
Carboxypeptidase B: ATGHSYEKYNKWETIEAWTQQVATENPALISRSVIGTTFEGRAIYLLKVGKAGQNKPAIFMDCGFHAREWISPAFCQWFVREAVRTYGREIQVTELLDKLDFYVLPVLNIDGYIYTWTKSRFWRKTRSTHTGSSCIGTDPNRNFDAGWCEIGASRNPCDETYCGPAAESEKETKALADFIRNKLSSIKAYLTIHSYSQMMIYPYSYAYKLGENNAELNALAKATVKELASLHGTKYTYGPGATTIYPAAGGSKDWAYDQGIRYSFTFELRDTGRYGFLLPESQIRATCEETFLAIKYVASYVLEHLY
modifications: (His)6-c-myc tag
Turning to B1, the Km in series [1] amounted to 5.3 mM; in [10], 2.7 mM. In addition, the “kcat, Hipp-Glu” value in [1] was 3.8 s⁻¹. Besides, the “Hipp-Arg (% conversion to Hippuric acid)” value in series [2] is recorded as below 2%. The “kcat, glutamic acid prodrug” value in [3] came to 0.016 s⁻¹. Further, the “Vmax, glutamic acid prodrug” value in [3] (enzyme 0.25 mg/ml) was found to be 0.000117 mM/s. In addition, the “Hipp-Arg (% conversion)” value in series [4] (enzyme 2.5 μg/ml), in [4] (enzyme 25 μg/ml) and in series [7] was 0% in each case. In addition, in [5], the “Hipp-Asp (% conversion to Hippuric acid)” value is 78%. For the same molecule, the “Prodrug Hydrolysis (%)” value in [6] is on record as 70.4%. Further, the “drug concentration at end of reaction” value in series [6] was 0.352 mM. The “Hipp-Glu (% conversion)” value in series [8] came to 7.4%; in series [11] (enzyme 2.5 μg/ml) it was 14.6%; in series [11] (enzyme 25 μg/ml), 79%. Also, the “Hipp-Asp (% conversion)” value in series [9] is reported as 2.0%; in series [13] (enzyme 2.5 μg/ml) it was 2.9%; in series [13] (enzyme 25 μg/ml) it was 22%. Also, the “kcat, Hipp-Asp” value in [10] worked out at 0.26 s⁻¹. In addition, in [12] (100 μg enzyme added to assay wells containing glutamic acid prodrug), the “cytotoxicity of the glutamic acid prodrug with enzyme added” value is reported as “comparable to that of the active drug”. In addition, in series [12] (2.4 to 11.75 μg/ml enzyme added to prodrug 500 μM, FIG. 16), the “toxicity of prodrug of Example 21 with enzyme added” value is reported as “matched that seen with 200 μM of the active drug”. In [14], the “Hipp-Glu (% conversion to Hippuric acid)” value came out at 91%.

B2: proHCPB: proHCPB expressed from COS-7 cells (plasmid pMF49), activated with trypsin (protein, UniProt P15086 16-417, looked up)
pro-form: HHGGEHFEGEKVFRVNVEDENHINIIRELASTTQIDFWKPDSVTQIKPHSTVDFRVKAEDTVTVENVLKQNELQYKVLISNLRNVVEAQFDSRVRATGHSYEKYNKWETIEAWTQQVATENPALISRSVIGTTFEGRAIYLLKVGKAGQNKPAIFMDCGFHAREWISPAFCQWFVREAVRTYGREIQVTELLDKLDFYVLPVLNIDGYIYTWTKSRFWRKTRSTHTGSSCIGTDPNRNFDAGWCEIGASRNPCDETYCGPAAESEKETKALADFIRNKLSSIKAYLTIHSYSQMMIYPYSYAYKLGENNAELNALAKATVKELASLHGTKYTYGPGATTIYPAAGGSDDWAYDQGIRYSFTFELRDTGRYGFLLPESQIRATCEETFLAIKYVASYVLEHLY
modifications: pro-form
With B2, in series [15], the “hydrolysis of the Hipp-Arg substrate” value is given as “complete hydrolysis”.

For orientation: Km means the substrate concentration at which the rate is half of its maximum.

The record behind these values is patent publication US6436691B1, “Chemical compounds” (Zeneca Limited, priority 1995, dated 2002).
